Read-outs that look alike come from different tables or passages of the source.
B1: anti-Siglec15 benchmark (ch5G12) (antibody, human IgG1, kappa, V domains shown)
VH: QVQLQQPGAELVKPGASVKMSCKASGYTFTSYWITWVIQRPGQGLEWIGDIYCGSDTMHYNEKFKNKATLTVDTSSSTAYMQLSSLTSEDSAVYYCARWWDYGSSYDYFDYWGQGTTLTVSS
VL: DIKMTQSPSSMYASLGERVTITCKASQDINSYLSWFQQKPGKSPKTLIYRANRLVDGVPSRFSGSGSGQDYSLTISSLEYEDMGIYYCLQYDEFPYTFGGGTKLEIKR
notes: ch5G12 (US 20190202912A1); also called BM; Siglec15-ch5G9
B2: B2D7H7A3C1 (antibody, V domains shown)
VH: QVQLQQSGAELVRPGTSVQMSCKAAGYTFTNYWIGWVKQRPGHGLEWVGDIHPGINYTNNNEKFRGKATLTADTSSNTAYMQLRGLTSDDSAIYYCARVDYDYDGSYIMDYWGQGTSVTVSS
VL: QIVLSQSPALLSASPGEKVTMTCRASSSVSYMYWYQQKPGSSPKPWIYATSNLTSGVPARFSGSGSGTSYSLTISRVEAEDAATYFCQQWNSKPWTFGGGSKLEIR
notes: Mouse monoclonal antibody from hybridoma; also called mouse B2D7H7A3C1
B3: B2G12H3E8 (antibody, V domains shown)
VH: QVQLKQSGAELVRPGTSVQMSCKAVGYTFTNYWIGWVKQRPGHGLEWVGDIHPGINYTNNNEKFRGKATLTADTSSSTAYMQLRGLTSDDSAIYYCARVDYDYDGSYIMDYWGQGTSVTVSS
VL: QIVLSQSPALLSASPGEKVTMTCRASSSVSYMYWYQQKPGSSPKPWIYATSNLTSGVPARFSGSGSGTSYSLTISRVEAEDAATYFCQQWNSKPWTFGGGSKLEIR
notes: Mouse monoclonal antibody from hybridoma; also called mouse B2G12H3E8
B4: B2H2H1H7 (antibody, V domains shown)
VH: QVQLQQSGAELVRPGTSVQMSCKAAGYTFTNYWIGWVKQRPGHGLEWVGDIHPGINYTNNNEKFRGKATLTADTSSSTAYMQLRGLTSDDSAIYYCARVDYDYDGSYIMDYWGQGTSVTVSS
VL: QIILSQSPALLSASPGEKVTMTCRASSSVSYMYWYQQKPGSSPKPWIYATSNLTSGVPARFSGSGSGTSYSLTISRVEAEDAATYFCQQWNSKPWTFGGGSRLEIR
notes: Mouse monoclonal antibody from hybridoma; also called mouse B2H2H1H7; B2H2H1A7
B5: A2A5C7E8 (antibody, V domains shown)
VH: EVQLVQSGAEVKKPGESLRISCKGSGYSFTTYWISWVRQMPGKGLEWMGLIDPSDSYTNYSPSFQGHVTISTDKSISTAYLQWSSLKASDTAMYYCARGGYYGSEEDYWGQGTLVTVSS
VL: EIVLTQSPGTLSLSPGERATLSCRASQSVSSSRLAWFQQKSGQAPRLLIFDASSRATGIPDRFSGSGSGTDFTLTISRLEPEDFAVYYCQQYGSSPRTFGQGTKVEFK
notes: Fully human antibody from transgenic mouse hybridoma; also called A2A5C7E8-1
B6: A2A5C7E8-2 (antibody, human IgG1, kappa, V domains shown)
VH: EVQLVQSGAEVKKPGESLRISCKGSGYSFTTYWISWVRQMPGKGLEWMGLIDPSESYTNYSPSFQGHVTISTDKSISTAYLQWSSLKASDTAMYYCARGGYYGSEEDYWGQGTLVTVSS
VL: EIVLTQSPGTLSLSPGERATLSCRASQSVSSSRLAWFQQKSGQAPRLLIFDASSRATGIPDRFSGSGSGTDFTLTISRLEPEDFAVYYCQQYGSSPRTFGQGTKVEFKR
notes: Variant of A2A5C7E8 modified in VH CDR2 (X1 = E)
B7: A2A5C7E8-3 (antibody, human IgG1, kappa, V domains shown)
VH: EVQLVQSGAEVKKPGESLRISCKGSGYSFTTYWISWVRQMPGKGLEWMGLIDPSDSYTNYSPSFKGHVTISTDKSISTAYLQWSSLKASDTAMYYCARGGYYGSEEDYWGQGTLVTVSS
VL: EIVLTQSPGTLSLSPGERATLSCRASQSVSSSRLAWFQQKSGQAPRLLIFDASSRATGIPDRFSGSGSGTDFTLTISRLEPEDFAVYYCQQYGSSPRTFGQGTKVEFKR
notes: Variant of A2A5C7E8 modified in VH CDR2 (X2 = K)
B8: A1E10G7H9 (antibody, V domains shown)
VH: QVQLQESGPGLVKPSGTLSLTCAVSGGSISSSNWWHWVRQPPGKGLEWIGEIYHSGNTNYKPSLKSRVTISVDKSKNQFSLKLSSVTAADTAVYYCARDEGNGWSNAFDIWGQGTMVTVSS
VL: ENVLTQSPGTLSLSPGERVTLSCRASQSVSSSYLAWYQQKPGQAPRFLIYGASGGATGIPDRFSGSGSGTDFTLTISRLEPEDFAVYYCQQYGSSPITFGQGTRLEIK
notes: Fully human antibody from transgenic mouse hybridoma

How the values were obtained:
[1] = target: T1, recombinant human Siglec15-his protein (human, UniProt Q6ZMC9 20-263); assay: capture ELISA, captured antibody, biotin-labeled human Siglec15-his in solution
T1 construct: In house made; Biotin-labeled in the capture ELISA
T1 sequence: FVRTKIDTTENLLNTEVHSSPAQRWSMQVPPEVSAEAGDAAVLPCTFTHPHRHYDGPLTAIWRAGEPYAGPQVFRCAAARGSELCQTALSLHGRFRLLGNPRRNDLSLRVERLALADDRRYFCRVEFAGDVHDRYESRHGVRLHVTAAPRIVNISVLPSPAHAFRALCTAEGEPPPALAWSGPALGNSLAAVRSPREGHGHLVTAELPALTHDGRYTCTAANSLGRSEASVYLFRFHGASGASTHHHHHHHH
Experimental: (§1) Briefly, 96-well plates were coated with 100 μl of 2 μg/ml AffiniPure Goat Anti-Human IgG F(ab′)₂ fragment specific (Jackson Immuno Research, Cat #109-005-097) in PBS for 2 hours at 37° C. Plates were washed once with wash buffer (PBS+0.05% v/v Tween-20, PBST) and then blocked with 200 μl blocking buffer (5% w/v non-fatty milk in PBST) overnight at 4° C. Plates were washed 4 times and respectively incubated with 100 μl serially diluted anti-Siglec15 antibodies of the disclosure, the benchmark and hIgG (human immunoglobulin (pH4) for intravenous injection, Hualan Biological Engineering Inc.), 5-fold dilution in 2.5% w/v non-fatty milk in PBST starting at 66.7 nM, for 40 minutes at 37° C., and then washed 4 times again. Plates containing captured antibodies were incubated with 100 μl biotin-labeled human Siglec15-his protein (in house made with SEQ ID NO: 20, 145 ng/ml in 2.5% w/v non-fatty milk in PBST) for 40 minutes at 37° C., washed 4 times, and incubated with streptavidin conjugated HRP (1:10000 dilution in PBST, Jackson Immuno Research, Cat #016-030-084, 100 μl/well) for 40 minutes at 37° C. After a final wash, plates were incubated with 100 μl/well ELISA substrate TMB (Innoreagents, Cat #TMB-S-002). The reaction was stopped in 4 minutes at room temperature with 50 μl/well 1M H₂SO₄, and the absorbance of each well was read on a microplate reader using dual wavelength mode with 450 nm for TMB and 630 nm as the reference wavelength, then the OD (450-630) values were plotted against antibody concentration. Data was analyzed using Graphpad Prism software and EC₅₀ values were reported.

[2] = target: T2, mouse Siglec15-his protein (mouse); assay: SPR Biacore T200, antibody captured by anti-human IgG, antigen as analyte, 1:1 fit
T2 construct: In house made
T2 chain: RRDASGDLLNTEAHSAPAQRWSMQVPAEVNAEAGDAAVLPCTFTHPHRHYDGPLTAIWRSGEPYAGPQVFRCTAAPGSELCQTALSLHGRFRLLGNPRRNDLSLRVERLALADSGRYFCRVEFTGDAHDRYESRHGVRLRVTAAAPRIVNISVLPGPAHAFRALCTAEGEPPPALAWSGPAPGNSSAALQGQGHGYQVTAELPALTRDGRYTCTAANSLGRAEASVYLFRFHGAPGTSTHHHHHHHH
Experimental: Briefly, goat anti-human IgG (GE healthcare, Cat #BR100839, Human Antibody Capture Kit) was covalently linked to a CM5 chip (carboxy methyl dextran coated chip, GE healthcare, Cat #BR-1005-30) via primary amines, using a standard amine coupling kit provided by Biacore (GE healthcare, Pittsburgh, Pa., USA). Un-reacted moieties on the biosensor surface were blocked with ethanolamine. Then, purified anti-Siglec15 antibodies of the disclosure at the concentration of 13.3 nM and an anti-Siglec15 benchmark (ch5G12, also referred to as BM, see U.S. Patent Publication No. 20190202912A1, amino acid sequences of the heavy chain and light chain set forth in SEQ ID NOs: 24 and 25, respectively) at 13.3 nM, were respectively flowed onto the chip at a flow rate of 10 μL/min. Then, serially diluted recombinant human Siglec15-his protein (in house made, amino acid sequence set forth in SEQ ID NO: 20) or cynomolgus monkey Siglec15-his protein (in house made, amino acid sequence set forth in SEQ ID NO: 21), 2-fold serial dilution in HBS-EP⁺ buffer starting at 80 nM, were respectively flown onto the chip at a flow rate of 30 μL/min. The antigen-antibody association kinetics was followed for 2 minutes and the dissociation kinetics was followed for 10 minutes. The association and dissociation curves were fit to a 1:1 Langmuir binding model using BIAcore evaluation software.
For the BIAcore test measuring the binding affinities of the modified A2A5C7E8 variants to mouse Siglec 15, mouse Siglec15-his protein (in house made with SEQ ID NO: 22) was used.

[3] = target: T2, mouse Siglec15-his protein; assay: indirect ELISA on coated mouse Siglec15-his
Experimental: (§2) The anti-Siglec15 antibodies' cross-reactions to cynomolgus or mouse Siglec15 proteins were measured. Briefly, 96-well micro plates were coated with 100 μl of 2 μg/ml cynomolgus Siglec15-his protein (in house made with SEQ ID NO: 21), or 2 μg/ml mouse Siglec15-his protein (in house made with SEQ ID NO: 22) in carbonate/bicarbonate buffer (pH 9.6) for 2 hours at 37° C. ELISA plates were washed once with wash buffer (PBS+0.05% v/v Tween-20, PBST) and then blocked with 200 μl/well blocking buffer (5% w/v non-fatty milk in PBST) overnight at 4° C. Plates were washed 4 times and incubated with 100 μl serially diluted anti-Siglec15 antibodies of the disclosure or controls (starting at 66.7 nM, 5-fold serial dilution in PBST with 2.5% w/v non-fatty milk) for 40 minutes at 37° C. ELISA plates were washed 4 times again and incubated with Peroxidase AffiniPure Goat Anti-Human IgG, F(ab)₂ fragment specific (1:5000 dilution in PBST buffer, Jackson Immunoresearch, Cat #109-035-097, 100 μl/well) for 40 minutes at 37° C. After a final wash, plates were incubated with 100 μl/well TMB (Innoreagents, Cat #TMB-S-002). The reaction was stopped 4 minutes later at room temperature with 50 μl 1M H₂SO₄, and the absorbance of each well was read on a microplate reader using dual wavelength mode with 450 nm for TMB and 630 nm as the reference wavelength, then the OD (450-630) values were plotted against antibody concentration. Data was analyzed using Graphpad Prism software and EC₅₀ values were reported.

[4] = target: T1, recombinant human Siglec15-his protein; assay: capture ELISA, captured antibody, biotin-labeled human Siglec15-his in solution; remark: listed apart in the source
Experimental: as §1

[5] = target: T2, mouse Siglec15-his protein; assay: indirect ELISA on coated mouse Siglec15-his
Experimental: as §2

Binder	EC50 [1]	Kd [2]	koff [2]	kon [2]	EC50 [3]	EC50 [4]	EC50 [5]
B1	1.64 nM	0.17 nM	0.000931 s⁻¹	5.47e+06 M⁻¹ s⁻¹	0.361 nM	2.93 nM	0.276 nM
B2	0.101 nM	–	–	–	–	–	–
B3	0.0859 nM	–	–	–	–	–	–
B4	0.0937 nM	–	–	–	–	–	–
B5	–	0.0875 nM	0.000187 s⁻¹	2.14e+06 M⁻¹ s⁻¹	0.26 nM	0.232 nM	0.139 nM
B6	–	0.188 nM	0.000495 s⁻¹	2.63e+06 M⁻¹ s⁻¹	–	–	0.151 nM
B7	–	0.0737 nM	0.000165 s⁻¹	2.24e+06 M⁻¹ s⁻¹	–	–	0.159 nM
B8	–	–	–	–	0.329 nM	0.252 nM	–
